T1: human OX40 on cells (human, UniProt P43489 29-277)
T1 sequence (looked up): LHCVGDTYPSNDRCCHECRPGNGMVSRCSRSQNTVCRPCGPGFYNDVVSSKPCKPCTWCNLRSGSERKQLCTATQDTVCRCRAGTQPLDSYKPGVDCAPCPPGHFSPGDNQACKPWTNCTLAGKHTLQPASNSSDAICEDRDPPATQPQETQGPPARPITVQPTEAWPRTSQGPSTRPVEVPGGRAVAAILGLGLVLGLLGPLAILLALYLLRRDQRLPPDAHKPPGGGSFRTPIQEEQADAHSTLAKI

T2: recombinant human OX40-his protein (human, UniProt P43489 29-214)
T2 construct: Secreted via the native signal peptide, which lies within residues 1-214; also called Human OX40R-His; histidine tagged human OX40 receptor extracellular domain
T2 sequence: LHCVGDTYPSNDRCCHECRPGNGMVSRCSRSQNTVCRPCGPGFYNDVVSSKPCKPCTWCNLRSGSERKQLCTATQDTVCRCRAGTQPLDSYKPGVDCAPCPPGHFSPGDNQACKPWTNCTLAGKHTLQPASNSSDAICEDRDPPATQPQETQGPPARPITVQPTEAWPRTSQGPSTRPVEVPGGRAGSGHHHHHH

B1: pab1949 IgG1 (antibody, V domains shown)
VH: EVQLVESGGGLVQPGGSLKLSCAASGFTFSGSAMHWVRQASGKCLEWVGRIRSKANSYATAYAASVKGRFTISRDDSKNTAYLQMNSLKTEDTAVYYCTSGIYDSSGYDYWGQGTLVTVSS
VL: not shown
B2: OX40-CRD-Avi-his (receptor)
chain: LHCVGDTYPSNDRCCHECRPGNGMVSRCSRSQNTVCRPCGPGFYNDVVSSKPCKPCTWCNLRSGSERKQLCTATQDTVCRCRAGTQPLDSYKPGVDCAPCPPGHFSPGDNQACKPWTNCTLAGKHTLQPASNSSDAICEDRDGLNDIFEAQKIEWHEHHHHHH
notes: limits of the construct not described
B3: mouse 2H6 antibody (hybridoma 2H6) (antibody, V domains shown)
VH: DVQLQESGPGLVKPSQSLSLTCTVTGYSITSDYAWNWIRQFPGNKLEWMGYISYSGSTAYNPSLKSRISITRDTSKNQFFLQLNSVTTEDTATYYCARGPYNYLAYWGQGTLVTVSS
VL: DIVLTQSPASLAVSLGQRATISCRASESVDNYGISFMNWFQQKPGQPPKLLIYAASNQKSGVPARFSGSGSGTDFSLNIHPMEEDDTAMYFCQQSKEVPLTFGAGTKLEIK
notes: also called mouse antibody 2H6

Key:
human OX40 on cells = target: T1, human OX40 on cells; experiment: cell-based or functional assay
rat OX40-Fc = rat OX40-Fc (rat); experiment: ELISA on coated rat OX40-Fc
Description: These constructs were expressed in HEK293-EBNA1 cells and purified using protein A. Then, human and rat OX40-Fc were tested in ELISA and Biacore to determine antibody cross-reactivity. For the ELISA, 96 well-microtiter plates (Costar USA, distributor VWR AG, Nyon, Switzerland) were coated with 100 μl of recombinant human or rat OX40-Fc at 2 μg/ml in PBS. Plates were incubated overnight at 4° C. and were then blocked with PBS 2% BSA (Bovine Serum Albumine, PAA Laboratories, Pasching, Austria) at room temperature (RT) for one hour. The blocking solution was removed and the purified antibodies were added at 10 μg/ml in PBS 2% BSA. The plates were incubated at RT for 1 hour, then washed 5 times with PBS 0.01% Tween-20 (Sigma-Aldrich Chemie GmbH, Buchs, Switzerland). […] Plates were incubated for 1 hour at RT, washed 5 times with PBS 0.01% Tween-20 and the TMB substrate (Bio-rad Laboratories AG, Reinach, Switzerland) was added to the plates and the reaction stopped after 5 minutes by adding H₂SO₄. Absorbance was then read at 450 nm by a microplate reader (Biotek, USA; distributor: WITTEC AG, Littau, Switzerland). Biacore experiments were specifically conducted with Hexa-hzG3V9 and Hexa-hz1D10v1 which are dAb-Fc fusion proteins. […] Binding of human and cyno OX40-Fc molecules was determined by successively injecting these proteins on the 4 flow-paths (flow-path 1 and 3 being used as references) at a concentration of 200 nM and a flow rate of 30 uL/min for 240 seconds. Regeneration between the two injections was done using 3M MgCl2, at 30 uL/min for 60 seconds. Using these two approaches, human/rat OX40 binding was assessed (table 16).

OX40-CRD-Avi-his = target: B2; experiment: SPR, antibody captured by anti-human IgG Fc, hsOX40_CRD_Avi_His injected
Description: (§1) Dilution series of hsOX40_CRD_Avi_His (SEQ ID NO: 159) were then injected.

[1] = target: pab1949 scFv fused in C-terminus (Fc fragment after digestion); experiment: SPR, Fc-scFv fragment captured by anti-human IgG Fc, OX40-CRD-Avi-his injected
Description: The antibody/protease mixture was incubated over night at 37° C. […] After each binding event, the surface was regenerated with 10 μl of MgCl2 (3M) buffer. Experimental data were processed using a 1:1 Langmuir model with local Rmax. The dissociation time was about 7 min.
as §1

[2] = target: T2, recombinant human OX40-his protein; experiment: direct ELISA on coated OX40-his
Description: Plates were incubated overnight at 4° C. and were then blocked with PBS 2% BSA (Bovine Serum Albumine, PAA Laboratories, Pasching, Austria) at room temperature (RT) for one hour. […] Absorbance was then read at 450 nm by a microplate reader (Biotek, USA; distributor: WITTEC AG, Littau, Switzerland).

rat OX40-Fc (rat), sequence (chain, as listed by the source limits assumed): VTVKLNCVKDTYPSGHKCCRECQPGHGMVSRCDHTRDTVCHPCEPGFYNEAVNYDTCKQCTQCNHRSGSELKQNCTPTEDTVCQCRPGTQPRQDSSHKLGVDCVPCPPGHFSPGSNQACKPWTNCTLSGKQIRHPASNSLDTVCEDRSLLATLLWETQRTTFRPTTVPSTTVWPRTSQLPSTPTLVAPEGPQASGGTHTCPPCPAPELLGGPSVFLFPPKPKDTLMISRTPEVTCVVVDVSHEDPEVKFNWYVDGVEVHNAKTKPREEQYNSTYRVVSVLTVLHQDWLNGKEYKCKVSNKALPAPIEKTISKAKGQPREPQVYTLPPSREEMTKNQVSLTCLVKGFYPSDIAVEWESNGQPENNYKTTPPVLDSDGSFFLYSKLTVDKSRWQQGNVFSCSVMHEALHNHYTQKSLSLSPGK

Q: Which results are given for B1?
A: % donor responder (>2), SEB assay, IL-2 release (human OX40 on cells): 80%; Mean, normalized IL-2 release, SEB assay (human OX40 on cells): 4.74; binding result (rat OX40-Fc): no binding (tested: 10 µg/ml); Kd (OX40-CRD-Avi-his): 304 nM

Q: B2 was tested. Which Kd [1] did it give?
A: 460 nM

Q: Does B3 bind [2]?
A: binds

From patent US20200347143A1 (GLENMARK PHARMACEUTICALS S A, published 2020)
